Values of other authors in paper PMC3385930.

How the values were obtained:
Adducin (Homo sapiens) = Adducin (Homo sapiens) (UniProt P35611)
Band 3 (Homo sapiens) = Band 3 (Homo sapiens) (UniProt P02730)
Sequence of UniProt P02730 (P02730 whole entry): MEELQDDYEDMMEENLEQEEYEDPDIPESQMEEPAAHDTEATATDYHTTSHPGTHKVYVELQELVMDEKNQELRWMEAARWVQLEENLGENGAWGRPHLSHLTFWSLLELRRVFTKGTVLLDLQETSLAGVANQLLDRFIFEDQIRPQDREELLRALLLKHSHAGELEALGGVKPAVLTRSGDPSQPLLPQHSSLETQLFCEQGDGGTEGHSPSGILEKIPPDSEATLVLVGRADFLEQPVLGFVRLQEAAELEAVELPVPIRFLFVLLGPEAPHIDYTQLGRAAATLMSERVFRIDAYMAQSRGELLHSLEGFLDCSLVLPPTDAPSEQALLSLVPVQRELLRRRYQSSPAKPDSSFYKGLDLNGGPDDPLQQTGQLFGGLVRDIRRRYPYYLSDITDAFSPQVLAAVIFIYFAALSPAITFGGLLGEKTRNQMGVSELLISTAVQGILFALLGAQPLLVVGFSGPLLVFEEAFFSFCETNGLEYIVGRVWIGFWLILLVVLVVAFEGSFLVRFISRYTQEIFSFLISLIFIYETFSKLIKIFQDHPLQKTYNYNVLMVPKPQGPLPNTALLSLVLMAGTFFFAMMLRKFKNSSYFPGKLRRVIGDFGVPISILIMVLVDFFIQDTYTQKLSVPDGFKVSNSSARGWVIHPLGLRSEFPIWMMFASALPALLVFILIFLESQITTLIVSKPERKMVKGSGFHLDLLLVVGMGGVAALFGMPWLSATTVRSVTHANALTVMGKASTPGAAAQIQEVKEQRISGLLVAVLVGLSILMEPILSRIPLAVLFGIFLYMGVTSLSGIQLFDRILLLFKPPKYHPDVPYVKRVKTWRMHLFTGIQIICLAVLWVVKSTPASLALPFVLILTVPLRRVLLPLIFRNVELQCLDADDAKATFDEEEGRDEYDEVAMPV

| Substance | Kd (Adducin (Homo sapiens)) [nM] | Kd (Band 3 (Homo sapiens)) [nM] |
| --- | --- | --- |
| Stomatin (from UniProt P27105) | 100 |  |
| Adducin (from UniProt P35611) |  | 100 |
